Measured values reported in article PMC5050335.

Assays:
[1] = target: T1, Cap0037 (Clostridium acetobutylicum ATCC 824) (UniProt Q97TR1); experiment: DNase I footprinting; conditions: EMSA: 20 ul with 2 ul buffer (stock 200 mM Tris, 500 mM Na glutamate, 100 mM MgCl2, 63.6 mM EDTA, 0.5% NP-40, 50% glycerol), 1 ug poly(dI-dC), 20 min room …
T1 sequence: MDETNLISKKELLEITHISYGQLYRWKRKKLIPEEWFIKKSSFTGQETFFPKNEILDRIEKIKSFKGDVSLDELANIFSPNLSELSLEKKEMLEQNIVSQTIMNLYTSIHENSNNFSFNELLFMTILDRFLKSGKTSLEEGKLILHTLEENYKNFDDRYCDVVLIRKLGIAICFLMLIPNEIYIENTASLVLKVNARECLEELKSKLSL

[2] = target: T1, Cap0037 (Clostridium acetobutylicum ATCC 824); experiment: EMSA; conditions: EMSA: 20 ul with 2 ul buffer (stock 200 mM Tris, 500 mM Na glutamate, 100 mM MgCl2, 63.6 mM EDTA, 0.5% NP-40, 50% glycerol), 1 ug poly(dI-dC), 20 min room …

Sequence | binding [1] | binding [2]
AGAGAATTCCCATTTTACCTTCTATTCTAACTAAAAGGTATATTGATACAGCTATGGGAAAGCCAACATTGCCTATAAGAGACACTATATCGCCTGAATTCATAAAAACACCTCCACATAAGTTTATATAAATCTATTATGCAGAATTTTTAGGAAGTGTACTTTTATTTTCGAAAGCTAGTAGAAAAAATTAATATATGGTGTAAAAATTTACTTAAAAAAACAATATGTGTTATAATGGAT (double strand) [probe 144 (adc promoter, upstream site)] | binds | 
GCATAGGTCAAAAATATAACAGCTGTGTATTTAAATGTAAATAGCAACTTTTACAAAATGGTATCTAATATTTTGGCGTAATAATATATATTTAGGAATTATCAGTATATTTAGAAAAATATGAAGGTTTAAAATAAACTGCTAAATGTAAACGTATAATTTACATTTAGCAGTTTTCCTATATTATAAAATTTTATAGGAGCATAAATAGAATTGAGT (double strand) [sol probe (EMSA)] |  | binds
CTGCATAATATAAAATGCAGATTTTTTTAAACAAATATTGATAAAGATTATCAAATGATATATAATATTGTTAGTTAATAAATTAACAAAGTTTTATATTTTAAATACAATGTTGCATAAGACAAGGTAATTGAACTAATACTATACTAGTAATTGGAGGGGATAATATATGAAAAAGAATACTAAAATTTCAGTAATCGGAGCAGGATTTGT (double strand) [ldhA promoter] |  | no binding
ACAGAATTCCTCAATTCTATTTATGCTCCTATAAAATTTTATAATATAGGAAAACTGCTAAATGTAAATTATACGTTTACATTTAGCAGTTTATTTTAAACCTTCATATTTTTCTAAATATACTGATAATTCCTAAATATATATTATTACGCCAAAATATTAGATACCATTTTGTAAAAGTTGCTATTTACATTTAAATACACAGCTGTTATATTTTTGACCTATGCTTTTTATTGGAT (double strand) [probe sol (sol promoter, footprint)] | binds | 
ACAGAATTCGCAGAATTTTTAGGAAGTGTACTTTTATTTTCGAAAGCTAGTAGAAAAAATTAATATATGGTGTAAAAATTTACTTAAAAAAACAATATGTGTTATAATGTAAATATAAATAAATAGGACTAGAGGCGATTTATAATGTGAAGATAAAGTATGTTAGAAAAGCTAAACATTATTAAATTTAGGAAGGTGACTTTTATGTTAAAGGATGAAGTAATTAAACAAATTAGCACGCCATTAACTTCGCCGAT (double strand) [probe adcStart (adc transcription start)] | binds | 
